Results as given in the supplement of paper PMC10567573.

B1: HDAC6 (parent)
chain: QYMNEGELRVLADTYDSVYLHPNS

Variants of: B1
Test: protein stability index of a GFP-peptide fusion (GPS, HEK-293T) (PSI 1-6); higher = more stable
Conditions: c terminus: a fixed tail appended
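Note: lentivirally expressed fusions sorted by FACS into six bins by GFP to DsRed ratio, PSI derived from sequencing read proportions per bin multiplied by bin number.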

Variant | protein stability index
QYMNEGELRALADTYDSVYLHPNS [V10A] | 1.79
QYMNEGELRNLADTYDSVYLHPNS [V10N] | 2.15
QYMNEGELRELADTYDSVYLHPNS [V10E] | 2.46
QYMNEGELRRLADTYDSVYLHPNS [V10R] | 1.92
QYMNEGELRGLADTYDSVYLHPNS [V10G] | 3.15
QYMNEGELRSLADTYDSVYLHPNS [V10S] | 2.81
QYMNEGELRKLADTYDSVYLHPNS [V10K] | 2.01
QYMNEGELRPLADTYDSVYLHPNS [V10P] | 3.53
QYMNEGELRQLADTYDSVYLHPNS [V10Q] | 3.27
QYMNEGELRILADTYDSVYLHPNS [V10I] | 1.84
QYMNEGELRLLADTYDSVYLHPNS [V10L] | 1.66
QYMNEGELRTLADTYDSVYLHPNS [V10T] | 2.18
QYMNEGELRMLADTYDSVYLHPNS [V10M] | 2.08
QYMNEGELRHLADTYDSVYLHPNS [V10H] | 2.31
QYMNEGELRDLADTYDSVYLHPNS [V10D] | 3.61
QYMNEGELRCLADTYDSVYLHPNS [V10C] | 2.51
QYMNEGELRFLADTYDSVYLHPNS [V10F] | 2.69
QYMNEGELRWLADTYDSVYLHPNS [V10W] | 2.22
QYMNEGELRYLADTYDSVYLHPNS [V10Y] | 2.95
QYMNEGELIVLADTYDSVYLHPNS [R9I] | 2.13
QYMNEGELTVLADTYDSVYLHPNS [R9T] | 2.14
QYMNEGELNVLADTYDSVYLHPNS [R9N] | 2.67
QYMNEGELAVLADTYDSVYLHPNS [R9A] | 1.76
QYMNEGELPVLADTYDSVYLHPNS [R9P] | 3.26

Variant | protein stability index
QYMNEGELMVLADTYDSVYLHPNS [R9M] | 1.46
QYMNEGELEVLADTYDSVYLHPNS [R9E] | 2.7
QYMNEGELDVLADTYDSVYLHPNS [R9D] | 2
QYMNEGELYVLADTYDSVYLHPNS [R9Y] | 1.87
QYMNEGELQVLADTYDSVYLHPNS [R9Q] | 2.65
QYMNEGELGVLADTYDSVYLHPNS [R9G] | 2.18
QYMNEGELFVLADTYDSVYLHPNS [R9F] | 3.31
QYMNEGELWVLADTYDSVYLHPNS [R9W] | 1.23
QYMNEGELCVLADTYDSVYLHPNS [R9C] | 1.48
QYMNEGELLVLADTYDSVYLHPNS [R9L] | 1.6
QYMNEGELVVLADTYDSVYLHPNS [R9V] | 4.11
QYMNEGELSVLADTYDSVYLHPNS [R9S] | 2.05
QYMNEGELKVLADTYDSVYLHPNS [R9K] | 1.69
QYMNEGELHVLADTYDSVYLHPNS [R9H] | 3.19
QYMNEGWLRVLADTYDSVYLHPNS [E7W] | 1.72
QYMNEGTLRVLADTYDSVYLHPNS [E7T] | 2.62
QYMNEGYLRVLADTYDSVYLHPNS [E7Y] | 1.44
QYMNEGVLRVLADTYDSVYLHPNS [E7V] | 1.5
QYMNEGELRVNADTYDSVYLHPNS [L11N] | 2.32
QYMNEGELRVHADTYDSVYLHPNS [L11H] | 3.13
QYMNEGELRVKADTYDSVYLHPNS [L11K] | 3.03
QYMNEGELRVDADTYDSVYLHPNS [L11D] | 3.01
QYMNEGELRVPADTYDSVYLHPNS [L11P] | 3.49
QYMNEGELRVYADTYDSVYLHPNS [L11Y] | 2.14

Variant | protein stability index
QYMNEGELRVAADTYDSVYLHPNS [L11A] | 1.83
QYMNEGELRVEADTYDSVYLHPNS [L11E] | 2.36
QYMNEGELRVIADTYDSVYLHPNS [L11I] | 1.78
QYMNEGELRVVADTYDSVYLHPNS [L11V] | 2.25
QYMNEGELRVGADTYDSVYLHPNS [L11G] | 2.46
QYMNEGELRVWADTYDSVYLHPNS [L11W] | 2.64
QYMNEGELRVQADTYDSVYLHPNS [L11Q] | 2.32
QYMNEGELRVCADTYDSVYLHPNS [L11C] | 1.95
QYMNEGELRVMADTYDSVYLHPNS [L11M] | 2.98
QYMNEGELRVSADTYDSVYLHPNS [L11S] | 1.76
QYMNEGELRVTADTYDSVYLHPNS [L11T] | 2
QYMNEGELRVRADTYDSVYLHPNS [L11R] | 2.61
QYMNEGELRVFADTYDSVYLHPNS [L11F] | 2.01
QYMNEGELRVLMDTYDSVYLHPNS [A12M] | 3.21
QYMNEGELRVLEDTYDSVYLHPNS [A12E] | 2.36
QYMNEGELRVLIDTYDSVYLHPNS [A12I] | 2.73
QYMNEGELRVLDDTYDSVYLHPNS [A12D] | 1.57
QYMNEGELRVLFDTYDSVYLHPNS [A12F] | 2.89
QYMNEGELRVLHDTYDSVYLHPNS [A12H] | 2.31
QYMNEGELRVLKDTYDSVYLHPNS [A12K] | 1.98
QYMNEGELRVLSDTYDSVYLHPNS [A12S] | 2.58
QYMNEGELRVLRDTYDSVYLHPNS [A12R] | 2.31
QYMNEGELRVLNDTYDSVYLHPNS [A12N] | 1.92
QYMNEGELRVLLDTYDSVYLHPNS [A12L] | 2.58

Variant | protein stability index
QYMNEGELRVLGDTYDSVYLHPNS [A12G] | 1.68
QYMNEGELRVLPDTYDSVYLHPNS [A12P] | 3.17
QYMNEGELRVLQDTYDSVYLHPNS [A12Q] | 2.04
QYMNEGESRVLADTYDSVYLHPNS [L8S] | 2.55
QYMNEGEFRVLADTYDSVYLHPNS [L8F] | 1.52
QYMNEGEMRVLADTYDSVYLHPNS [L8M] | 1.85
QYMNEGEVRVLADTYDSVYLHPNS [L8V] | 3.68
QYMNEGEWRVLADTYDSVYLHPNS [L8W] | 1.33
QYMNEGEERVLADTYDSVYLHPNS [L8E] | 3.51
QYMNEGEARVLADTYDSVYLHPNS [L8A] | 2.53
QYMNEGEHRVLADTYDSVYLHPNS [L8H] | 2.45
QYMNEGENRVLADTYDSVYLHPNS [L8N] | 2.62
QYMNEGECRVLADTYDSVYLHPNS [L8C] | 2.33
QYMNEGERRVLADTYDSVYLHPNS [L8R] | 2.94
QYMNEGEDRVLADTYDSVYLHPNS [L8D] | 2.7
QYMNEGETRVLADTYDSVYLHPNS [L8T] | 2.19
QYMNEGEIRVLADTYDSVYLHPNS [L8I] | 2.86
QYMNEGEPRVLADTYDSVYLHPNS [L8P] | 3.84
QYMNEGEYRVLADTYDSVYLHPNS [L8Y] | 2.96
QYMNEGEGRVLADTYDSVYLHPNS [L8G] | 3.36
QYMNEGEQRVLADTYDSVYLHPNS [L8Q] | 2.66
QYMNEGEKRVLADTYDSVYLHPNS [L8K] | 3
